Laboratory results as given in patent publication US5455181A, “Thrombin-inhibitory proteins from terrestrial leeches” (BASF Aktiengesellschaft, priority 1991, dated 1995).
No end group written: not given here.

Target: T1, Thrombin (Homo sapiens, UniProt P00734)
T1 construct: purchased Boehringer Mannheim
Experiment: Determination of the inhibition of thrombin (Chromozym TH chromogenic substrate, absorption at 405 nm)
Assay type: biochemical
Conditions: periplasmic expression in E. coli DH 5α, fusion protein with maltose binding protein
Method: The purification of the proteins can be followed by a thrombin activity assay. It is expedient to use for this an optical assay in which a chromogenic substrate, for example Chromozym TH, is converted by thrombin. The fractions containing the novel proteins can be identified on addition to this optical assay by their thrombin-inhibiting action.
Thrombin (Boehringer Mannheim) was dissolved to a final concentration of 25 mU/ml in phosphate-buffered saline (PBS) ([…] NaCl; 0.2 g/1 […]; 0.144 g/l sodium phosphate; 0.2 g/l potassium phosphate, pH 7.5).
Chromozym TH (Boehringer Mannheim) was dissolved in 20 ml of H2 O/vial.
50 μl of thrombin solution and 100 μl of Chromozym plus 25 μl of sample or buffer were placed in the wells of a microtiter plate. The absorption at 405 nm was measured immediately thereafter at time 0 and after 30 minutes at 37° C.
The thrombin activity leads to liberation from the chromogenic substrate of a dye which absorbs at 405 nm. The inhibition of thrombin by a thrombin inhibitor is evident from a smaller increase in absorption at 405 nm and was quantified using a calibration plot.

Question: “thrombin inhibitor: recombinant protein, SEQ ID NO: 23 position 1 to 57, expressed in E. coli as fusion protein with maltose binding protein (MFSTKMFVVFVAVCICVTQSIRFGMGKVPCPDGEVGYTCDCGEKICLYGQSCNDGQC; cysteine pairing not given here; also: expressed as fusion protein with maltose binding protein)” was tested. Which “concentration of the thrombin inhibitor” value did it give?
Answer: Its value is 1250 units per liter of culture medium.
